# Results taken from the supplement of paper PMC10724198.
# How the values were obtained:
# [1] = test system: Saccharomyces cerevisiae; test: protein stability index of tFT-peptide fusion in deletion strain of DAS1 (PSI (0-1 scale)); higher = more stable (slower turnover)
# Protocol: (§1)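 MPS profiling in S. cerevisiae of two library types built from selected 12-aa C-degron peptides (IN1, IN2, LN1, LN3, VN2, R1-R5, W1-W3, Atg1 and Rpa12 C-termini): saturation mutagenesis libraries and C-terminal +1 capping libraries (13 aa). Each peptide is fused to the C-terminus of a sfGFP-mCherry timer, after a GGGS linker. Cells are FACS-sorted into 8 mCherry/sfGFP bins and sequenced. PSI runs from 0 (unstable) to 1 (stable), measured once in wild type and in the das1Δ or doa10Δ background.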
# [2] = test system: Saccharomyces cerevisiae; test: protein stability index of tFT-peptide fusion in wild type (PSI (0-1 scale)); higher = more stable (slower turnover); settings: genetic background: wild type
# Protocol: as §1
# 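For protein stability index of tFT-peptide fusion in deletion strain of DAS1 in this document: PSI is a weighted mean of each variant's read distribution over the sorted stability bins, computed only for variants having over 10 reads in total.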
# 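For protein stability index of tFT-peptide fusion in wild type in this document: PSI derived as read-weighted mean over the 8 sorting bins, only variants exceeding 10 total reads kept, mCherry placed adjacent to the peptide and sfGFP distal.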
Sequence,protein stability index [1],protein stability index [2]
RLIQPLPTQFLN,0.638,0.215
ARWRVGLWRGAN,0.687,0.121
PDKRNHLICLLN,0.608,0.269
VRGAEGGWRLVG,0.686,0.242
VRGAVGNWRLVG,0.69,0.14
LKILRQKMNSQN,0.672,0.213
ARWRVILWRGAS,0.627,0.496
KKHKKGRKQKIN,0.586,0.0973
KKHKKGVKQKIN,0.743,0.128
PSLAASFLRVVG,0.642,0.641
VRQAVGGWRLVG,0.684,0.132
LKILRYKMNHQN,0.64,0.181
PDKRNHLCKLLN,0.665,0.131
KKHKKGMKQKIN,0.659,0.0523
LKILRQKMAHQN,0.673,0.178
ARWRVGLWRGAT,0.683,0.447
VRGAVGGWRLVS,0.686,0.148
PSLTASFWRVVG,0.693,0.156
VRGCVGGWRLVG,0.655,0.148
ARWEVGLWRGAS,0.648,0.458
CTSCVYKFRTNN,0.675,0.164
LKILRWKMNHQN,0.658,0.209
CTSCGYKFRTAN,0.673,0.27
ARWRVGLWRGASV,0.676,0.675

Sequence,protein stability index [1],protein stability index [2]
VRGAVGGWRLVGC,0.694,0.638
KWHKKGQKQKIN,0.562,0.108
GSMRWTFRYWVN,0.677,0.0781
VRGALGGWRLVG,0.669,0.171
PSLAASFQRVVG,0.672,0.692
VRGAVGGWMLVG,0.698,0.456
VRGAVGGFRLVG,0.677,0.661
LVVELSCVACIN,0.0632,0.0174
ARWRVGLWRRAS,0.673,0.093
RRIQPLPVQFLN,0.601,0.0626
PRWRVGLWRGAS,0.707,0.364
FSMRWTFRYGVN,0.527,0.338
CTSCGYKARTNN,0.686,0.623
LVDYLSCVACIN,0.354,0.21
FSMRWTMRYWVN,0.482,0.0449
RLSQPLPVQFLN,0.607,0.0622
CTSCGYIFRTNN,0.706,0.233
KVHKKGQKQKIN,0.64,0.0686
ARWRVGLWRGES,0.695,0.681
FSMRWTFRQWVN,0.427,0.109
PSLAASRWRVVG,0.682,0.156
PSLAAYFWRVVG,0.677,0.142
RLIQPQPVQFLN,0.593,0.0694
ARWRNGLWRGAS,0.701,0.658

Sequence,protein stability index [1],protein stability index [2]
PDGRNHLIKLLN,0.601,0.161
LVVYLSCVWCIN,0.263,0.0553
ARWRVGLDRGAS,0.687,0.665
CTSCWYKFRTNN,0.672,0.168
FSMRCTFRYWVN,0.522,0.0458
KKHKKGQIQKIN,0.569,0.109
LVVYGSCVACIN,0.305,0.245
PSLAAWFWRVVG,0.706,0.147
PSLAASFWRVVGD,0.691,0.689
VSGAVGGWRLVG,0.672,0.143
KKHCKGQKQKIN,0.637,0.13
FSMRWTTRYWVN,0.566,0.0528
PSLAASFTRVVG,0.648,0.647
LKILRQKMNHQNL,0.697,0.672
LVVYLSCVACIM,0.022,0.0115
PGLAASFWRVVG,0.695,0.172
CTFCGYKFRTNN,0.719,0.253
PDKRNHLIDLLN,0.624,0.591
LKILRQKMNIQN,0.686,0.214
YLIQPLPVQFLN,0.624,0.0777
FSMRYTFRYWVN,0.648,0.0639
VRGAVGEWRLVG,0.696,0.182
ARWRVFLWRGAS,0.674,0.432
PSLANSFWRVVG,0.711,0.269

Sequence,protein stability index [1],protein stability index [2]
KKHEKGQKQKIN,0.603,0.0983
PDDRNHLIKLLN,0.594,0.157
KKHKKGQKQKIQ,0.594,0.37
QLIQPLPVQFLN,0.616,0.0736
LKILRQKMNHVN,0.666,0.206
PDKRNHLIKLLQ,0.605,0.205
ARWRVGLWRGVS,0.689,0.122
VRYAVGGWRLVG,0.68,0.0921
VRGAVGGWRIVG,0.678,0.325
FSMRWTFAYWVN,0.39,0.047
PSTAASFWRVVG,0.701,0.135
VRGAVGGWTLVG,0.664,0.49
VRGAVGGWQLVG,0.689,0.28
NDKRNHLIKLLN,0.609,0.128
PDKRFHLIKLLN,0.672,0.113
LVVYLSFVACIN,0.116,0.0293
CTSCGYPFRTNN,0.723,0.677
RLNQPLPVQFLN,0.605,0.0569
LKILRQKMPHQN,0.692,0.681
RQIQPLPVQFLN,0.604,0.124
PDKRNHLIKYLN,0.638,0.0757
FSMRWTFRYFVN,0.631,0.0378
FSMRWTFRDWVN,0.724,0.595
PSLAASFFRVVG,0.654,0.609

Sequence,protein stability index [1],protein stability index [2]
ARWRVGLWRGAP,0.681,0.662
AKHKKGQKQKIN,0.829,0.11
LVVYLSCVACTN,0.0308,0.0171
LKILRQKMNHDN,0.671,0.39
KKHKKGQKQWIN,0.657,0.553
MSLAASFWRVVG,0.67,0.124
ARWRVGLWNGAS,0.664,0.634
ARWRVGHWRGAS,0.703,0.582
PDKRNHLIKKLN,0.581,0.0795
CTSCGYKFRTNC,0.699,0.224
VRGAVGDWRLVG,0.658,0.215
PSLAASFCRVVG,0.645,0.618
KKHKKGQHQKIN,0.579,0.0824
CKILRQKMNHQN,0.675,0.165
FKHKKGQKQKIN,0.586,0.123
FSMRFTFRYWVN,0.501,0.0475
RLHQPLPVQFLN,0.581,0.06
KKHKKGQKQHIN,0.648,0.435
ESLAASFWRVVG,0.689,0.136
LKILRQKMEHQN,0.671,0.404
PSLAASFWRVVF,0.701,0.699
